# In patent US20220064316A1 (published 2022):
# T1: BCMA (recombinant, form not given) (UniProt Q02223 1-54, limits assumed)
# T1 construct: one entry is used for both; also called Bio-BCMA; BCMA substrate
# T1 sequence (looked up): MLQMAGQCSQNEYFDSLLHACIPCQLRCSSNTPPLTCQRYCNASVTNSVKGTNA
# T2: human BCMA (B-cell maturation antigen) on cells (human, UniProt Q02223 1-184)
# T2 sequence (looked up): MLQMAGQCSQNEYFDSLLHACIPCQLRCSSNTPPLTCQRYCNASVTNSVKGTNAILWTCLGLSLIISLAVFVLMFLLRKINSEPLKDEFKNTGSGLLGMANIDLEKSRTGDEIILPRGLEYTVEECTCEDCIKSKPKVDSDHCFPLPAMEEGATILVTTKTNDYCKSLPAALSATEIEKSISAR
# B1: BCMA-13 scFv (139112) (scFv)
# scFv: QVQLVESGGGLVQPGGSLRLSCAVSGFALSNHGMSWVRRAPGKGLEWVSGIVYSGSTYYAASVKGRFTISRDNSRNTLYLQMNSLRPEDTAIYYCSAHGGESDVWGQGTTVTVSSASGGGGSGGRASGGGGSDIRLTQSPSPLSASVGDRVTITCQASEDINKFLNWYHQTPGKAPKLLIYDASTLQTGVPSRFSGSGSGTDFTLTINSLQPEDIGTYYCQQYESLPLTFGGGTKVEIK
# notes: also called B13
# B2: BCMA-15 scFv (139114) (scFv)
# scFv: EVQLVESGGGLVQPGGSLRLSCAVSGFALSNHGMSWVRRAPGKGLEWVSGIVYSGSTYYAASVKGRFTISRDNSRNTLYLQMNSLRPEDTAIYYCSAHGGESDVWGQGTTVTVSSASGGGGSGGRASGGGGSEIVLTQSPGTLSLSPGERATLSCRASQSIGSSSLAWYQQKPGQAPRLLMYGASSRASGIPDRFSGSGSGTDFTLTISRLEPEDFAVYYCQQYAGSPPFTFGQGTKVEIK
# notes: also called B15; BMCA-15
# B3: BCMA-4 scFv (139103) (scFv)
# scFv: QVQLVESGGGLVQPGRSLRLSCAASGFTFSNYAMSWVRQAPGKGLGWVSGISRSGENTYYADSVKGRFTISRDNSKNTLYLQMNSLRDEDTAVYYCARSPAHYYGGMDVWGQGTTVTVSSASGGGGSGGRASGGGGSDIVLTQSPGTLSLSPGERATLSCRASQSISSSFLAWYQQKPGQAPRLLIYGASRRATGIPDRFSGSGSGTDFTLTISRLEPEDSAVYYCQQYHSSPSWTFGQGTKLEIK
# notes: also called B4
# B4: BCMA-Fc antigen (R&D Systems) (Fc fusion)
# chain: T1 sequence (looked up)
# notes: also called BCMA fc fusion protein (R&D Systems, cat #193-BC-050); recombinant BCMA-Fc; not shown: Fc portion of the bought fusion protein
# B5: BCMA-1 CAR (139100) (other)
# chain: QVQLVQSGAEVRKTGASVKVSCKASGYIFDNFGINWVRQAPGQGLEWMGWINPKNNNTNYAQKFQGRVTITADESTNTAYMEVSSLRSEDTAVYYCARGPYYYQSYMDVWGQGTMVTVSSASGGGGSGGRASGGGGSDIVMTQTPLSLPVTPGEPASISCRSSQSLLHSNGYNYLNWYLQKPGQSPQLLIYLGSKRASGVPDRFSGSGSGTDFTLHITRVGAEDVGVYYCMQALQTPYTFGQGTKLEIKTTTPAPRPPTPAPTIASQPLSLRPEACRPAAGGAVHTRGLDFACDIYIWAPLAGTCGVLLLSLVITLYCKRGRKKLLYIFKQPFMRPVQTTQEEDGCSCRFPEEEEGGCELRVKFSRSADAPAYKQGQNQLYNELNLGRREEYDVLDKRRGRDPEMGGKPRRKNPQEGLYNELQKDKMAEAYSEIGMKGERRRGKGHDGLYQGLSTATKDTYDALHMQALPPR
# notes: also called ER95-03VA
# What was measured:
# [1] = biological target: T1, BCMA (recombinant, form not given); assay: affinity assay (RU biosensor), 1:1 Binding fit
# BCMA-10 CAR (139109) = biological target: T3, BCMA-10 CAR (139109); assay: flow cytometry; BCMA-Fc antigen staining of CAR-transduced SupT1 cells
# T3 construct: also called B10; EG63-98LB
# [2] = biological target: T2, human BCMA (B-cell maturation antigen) …; assay: cell-based or functional assay
# [3] = biological target: B4; assay: flow cytometry; BCMA-Fc staining of CAR-transduced JNL cells
# How it was run: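 Jurkat-NFAT-luciferase cells transduced with BCMA CAR lentiviral constructs were co-cultured on Day 3 with K562-BCMA, parental K562, NCI-H929 or RPMI 8226 targets at E:T 6:1; luciferase read on Day 4 (Bright-Glo). CAR surface expression measured on Day 7 by flow cytometry with BCMA-Fc antigen and biotin-Protein L.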
binder,measurement,setting,value
B1,Kd,[1],24.5 nM
same,koff,[1],0.00161 s⁻¹
same,kon,[1],65600 M⁻¹ s⁻¹
B2,Kd,[1],9.3 nM
same,koff,[1],0.00187 s⁻¹
same,kon,[1],201000 M⁻¹ s⁻¹
B3,Kd,[1],1 nM
same,koff,[1],0.0006 s⁻¹
same,kon,[1],617000 M⁻¹ s⁻¹
B4,binding result,BCMA-10 CAR (139109),binds
B5,"JNL binding assay, ratio to K562; K562-BCMA",[2],4.6 ratio
same,"JNL binding assay, ratio to K562; NCI-H929",[2],4.55 ratio
same,"JNL binding assay, ratio to K562; RPMI 8226",[2],5.06 ratio
same,"Proliferation CD3, ratio to no target; K562-BCMA",[2],1.59 ratio
same,"Proliferation CD3, ratio to no target; KMS11-luc",[2],1.38 ratio
same,"Proliferation CD3, ratio to no target; NCI-H929",[2],4.97 ratio
same,"Proliferation CD3, ratio to no target; RPMI 8226",[2],2.96 ratio
same,"Proliferation CD4, ratio to no target; K562-BCMA",[2],1.57 ratio
same,"Proliferation CD4, ratio to no target; KMS11-luc",[2],1.24 ratio
same,"Proliferation CD4, ratio to no target; NCI-H929",[2],5.57 ratio
same,"Proliferation CD4, ratio to no target; RPMI 8226",[2],2.43 ratio
same,"Proliferation CD8, ratio to no target; K562-BCMA",[2],1.61 ratio
same,"Proliferation CD8, ratio to no target; KMS11-luc",[2],1.56 ratio
same,"Proliferation CD8, ratio to no target; NCI-H929",[2],4.14 ratio
same,"Proliferation CD8, ratio to no target; RPMI 8226",[2],3.58 ratio
same,% CAR+ (BCMA-Fc detection),[3],72.1%
